This note sets out measurements from US5882644A, “Monoclonal antibodies specific for the platelet derived growth factor β receptor and methods of use thereof” (Protein Design Labs, Inc., priority 1996, dated 1999).

One assay has as its target rat PDGF-R β (rat, UniProt Q05030). In words: cell-based or functional assay.
The target in assay [1] is T1, PDGF-R β expressed on transfectant cells (CHO PDGF-R β transfectants, CHO C4 line); Sp2/0 PDGF-R β … (human, UniProt P09619). In words: competition with 125I-labeled M4TS.11 on Sp2/0 PDGF-R β transfectant cells. Here is the method: (§1) Figure 11: FIG. 11 is a graph depicting competitive binding of muM4TS.11 (closed squares) and HuM4TS.11 (open squares) and HuM4TS.11(gamma 1) (open diamonds). Increasing concentrations of cold competitor antibodies were incubated with the Sp2/0 transfectants expressing PDGF-R β in the presence of radiolabeled tracer muM4TS.11, and the ratio of bound/free radioactivity determined. The results shown are mean values of triplicate samples.
(§2) To assess the ability of HuM4TS.11 to compete with the muAb for receptor binding, increasing concentrations of the two antibodies were respectively incubated on ice for one hour with Sp2/0 PDGF-R β transfectant cells and a fixed amount of tracer ^125I-labeled M4TS.11. The sample tubes were processed as in the blocking experiment described. HuM4TS.11 competed less well than muM4TS.11 (FIG. 11).

In assay [2] the target is T1, PDGF-R β expressed on transfectant …. In words: competition with 125I-labeled muM4TS.11 on Sp2/0 PDGF-R β transfectant cells. As to the method: as §1, §2
(§3) Loss of binding affinity due to the gamma4 isotype has been observed in another antibody (Horgan et al. (1993) J. Immunol. 150:5400), and may be due to structural constraints imposed on the particular antibody by the gamma4 hinge region. See, Horgan et al. (1993).

Assay [3] has the same target. In words: competition with 125I-labeled muM4TS.11 on Sp2/0 PDGF-R β transfectant cells (FIG. 11). As to the method:
as §1, §2, §3

B1: muM4TS.11 (antibody, V domains shown)
VH: QVQLQQSGAEVAKPGASVKMSCKASGYTFTNCWMHWVKQRPGQGLEWIGYINPTTGYSEYNQNFKDKATLTADKSSNTAYIQLSSLTSEDSAVYYCTSNYGHYDWFANWGQGTLVT
VL: DIVLTQSPPSLAVSLGQRATISCRASESVDSYGNSFMHWYQQKPGQPPKLLIYRASNLESGIPARFSGGGSRTDFTLTINPVEADDVATYYCQQSNEDPPTFGGGTKLEIK
In the case of B1, the “IC50 of inhibition of PDGF BB-stimulated proliferation of rat aortic smooth muscle cells” value in the assay with rat PDGF-R β was about 0.5 µg/mL. In assay [1], this molecule gave a Ka of 5e+08 M⁻¹.

B2: HuM4TS.11(gamma1) (antibody, V domains shown)
VH: QVQLVQSGAEVKKPGASVKVSCKASGYTFTNCWMHWVRQAPGQGLEWIGYINPTTGYSEYNQNFKDKATITADKSTSTAYMELSSLRSEDTAVYYCTSNYGHYDWFGNWGQGTLVT
VL: DIQMTQSPSSLSASVGDRVTITCRASESVDSYGNSFMHWYQQKPGKAPKLLIYRASNLESGIPSRFSGSGSRTDFTLTISSLQPEDVATYYCQQSNEDPPTFGQGTKVEIK
In turn, B2 came in with a Ka in assay [2] of 1.6e+08 M⁻¹. The “fold difference in competition against muM4TS.11” value in assay [3] was about 3 fold.
